The target of this experiment is T1, recombinant endotheliase 1 (human, UniProt Q9UL52 192-423, limits assumed).
T1 construct: also called ET1; rET1
T1 sequence: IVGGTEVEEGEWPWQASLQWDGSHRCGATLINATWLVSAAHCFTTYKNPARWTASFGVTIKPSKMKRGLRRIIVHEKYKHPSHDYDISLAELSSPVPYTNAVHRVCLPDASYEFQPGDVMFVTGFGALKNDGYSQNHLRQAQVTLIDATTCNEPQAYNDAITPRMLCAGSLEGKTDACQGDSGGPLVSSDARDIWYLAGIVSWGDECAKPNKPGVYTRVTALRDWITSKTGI
The experiment can be described thus: inhibition of ET1 activity.

No end group written: not given here.

A word on the Ki: it is the dissociation constant of the complex between target and ligand, obtained from inhibition or displacement. On to AGKWHCKGYAPDCQMWGT (not fully specified (bridges); cysteine pairing not given here, synthetic peptide) [DX-1107], for which the Ki was found to be 500 nM.

The values are drawn from patent US20050164945A1 (published 2005).
